Experimental data: the DeepSol protein solubility set

test: soluble on expression in E. coli; label from the status in PepcDB or PDB records

Sequence	soluble on expression in E. coli
MGSDKIHHHHHHMHEVVQDYYGKQLQSTEDLKTSACCDVSNMPSWLKPLLANIHDEVLSRYYGCGLVCPALLEGCRILDLGCGSGRDVYALAQLVGSTGHVVGVDMTDEQLAIAKQHQDYHVDKFGYDNVTFLKGYIEKLDELNLDPNSFDIIVSNCVINLSPDKAAVMASVQRLLKPGGEFYFSDVYADRRIPQQLINDPVLYGECLSGALYWKDFERLARHADFLDPRLVEDRPLEITDPLLAAKIGDIQFFSATYRLFKIATLEDACEDHGQAVIYRGTIDQLPHHFNLDKHHAIETGRVFPVCGNTFRMLKESRFAKHFDFIGDDSRHYGIFAGCGDILPFGNQANIVSDSNVGQSVNSGSCC	not soluble
RLSDTLMKQALSSVITQEKKRLKSQPKSIAQDIQPPNSMIKNALDEKDSHPFGDCFSDDEFLAIHLYTSCLYRPINHHLRYAPKNDVAPVVEAMNSGLAKLAQYPDYQVSGQLHRGIKQKMDDGEVMSRFKPGNTYRDDAFMSTSTRMDVTEEFTSDVTLHLQSSSAVNIGPFSKNPYEDEALIPPLTPFKVTGLHKQDDRWHVHLNEIAESSDE	not soluble
MGHHHHHHSHMTLIYVDADNTRNELKATTGSNFTITHRKDPLTTKWKTVFGNNGDQWLCNVTGIGNATVNSNATICVSSCGHNTLDLCNLKSGDSGFFDLSRWFGENMDEYSGDVWHLEVS	soluble
MDRSERLIQLISEEGIDAFLIMNIENSARASSVYFSGFTGSFSIILISENTRLLITDSRYTVQAKQETDFEVREVKGGDFIDVLKKTVNDLKIKTIALEEERVSLSLFRRISSAFGDRKFIGIDDEVKQMRMVKDEGEIEKIKQAIEISERAFLETVQQIRAGMTEKEIAALLEYTMRKEGAEGVAFDTIVASGCRSALPHGKASDKVVERGDVIVIDFGATYENYCADITRVVSIGEPSDEVKEVHSIVLEAQERALKIAKAGVTGKLLDSVAREFIREKGYGEFFGHSLGHGIGLEVHEGPAISFRNDSPLPENVVFTVEPGIYLEGKFGIRIEEDVVLKEQGCEILTTLPRSIFVV	soluble
MTITSGIDVGTGAIKVVVFEVDGDQERCLGKRVERVRQRDPLKLAGDIYDDLLRETGLARADVAYCATTGEGESLTFHTGHFYSMTTHARGAIYLNPGSRAVLDTGALHGRAIRMDERGKVLAYKMTSQCASGSGQFLENIARYLGIAQDEIGSLSQRADNPEKVSGICAVLAETDVINMVSRGISSPNILRGIHESMADRLAKLLKTLGSLDGTVQMTGGLALDAGLVEAMKDAVVKAKVDVAIESHPDAIYAGAIGAALWGAFRHKRLADMAHAA	not soluble
AVAQQLRAESDFEQLPDDVAISANIADIEEKRGFTSHFVFVIEVKTKGGSKYLIYRRYRQFHALQSKLEERFGPDSKSSALACTLPTLPAKVYVGVKQEIAEMRIPALNAYMKSLLSLPVWVLMDEDVRIFFYQSPYDSEQVP	soluble
MLTSEIAACCKKLRLSRNIVEMSGKIQADNHQEYLLKLLKSEIIHREKTRNAKLLRKAGFYTIKTFESFRFDEVTLPGDITPEYLKECEFVKNKTNIVMYGNVGTGKTHLSIALGVEACKRGYEVRFFRTSALVNKLAEEKRVGTLSSFLKKLNKAELLICDEWRYVPLDRIGAQLLFEVISERYENKAVIINTNIEFSRWVNIFYDEQMTGAIVDRILHHCHLLLFFGQSNRMRESRLNT	not soluble
MEYGNLRRQAASLKKSLFDQGYLDEQFCQVEDLQDEANPNFAEEVVSLFFKDSTRVMLNFEQAIEKHPKDFARWDTHMQQLKGSCSSIGASRVKNECTSFRNFCGEENAEGCTRSFQKVKREHAVLRQKWESYFQLLRQAGPAGTATRPAGK	not soluble
MAKKIEKNIITGLDIGTSKIIALIGEVTSDGTIEIIGIGRHPSRGLKRGVVVDIETTVNSIQRAVQEAELMAGCEVRTVYAGIAGSHIRSLNSHGIVAIRDQEVSQADVERVIDAAKAVAIPADQ	not soluble
MLASLHIANYVLIDRLDIDFAPHFSVITGETGAGKSILLGALGLLVGGRADTSAIAPGTDRCIVEGRFTGFVPEMKAVLDRYDLDFDPDECTIRREISSKGKSRAFVNDTPAPLTALRELADFLIDIHSQHKNLLLGDSLFQLNVLDAYSGKPDLYAHYSKAYRVYAERKQKLEDLRKAAAATASEYDYWQFRFEQLDKAGLESGEEARLQEEQAMLTHALDIKRELGHSYSLLSDDERGLLSGLNKVEDALATIESYYPDSASFRQRVRDVRIELADIASDLGRRSDDVSYEPERLNAVTDRLDEILSLLHRYNADSSDALIAIRDDLAERLSRISTDEEEISRLEQEVLAFYKEIEAQASLLTEERIRAASALETSLCESLRKLNMPHVRFVVDIRSTEYGPHGADKVVFLFSANKQMEPEPVSEIASGGEIARLMLCLKALIADKRSLPAIVFDEIDTGVSGEVADRMGEIMAHMGQGMQVLAITHLPQIAARGERHYFVYKDETGERARTFIRELTPEERIREIARMQSGNNLTDVALAAAKELLAR	not soluble
PVPRTCWIGPWKKNLAQGKITLKLINWIKKAELKNQPVLIFFPEIEAMNQFAEALVNYDFTRPVTVHSADQLRKEKVEWLREGKIKLLLTTTILERGVTFKDVQVAVFGSEGRIFTEAALVQIAGRAGRKLTHPTGDVCFFHYGKTTEMNRAITHIKKMNQLGFKEG	soluble
MSVSNKLGDLASKVYENVLLEEVKKYPRPRHIGIITDGNRRYARNVGISENEGHVKGKEKVEEVVDWCMELDIRIVTFYAFSTENFRRSPEEVDFLFHLIDNAFKSLLKDERVYKNRINVKVIGNLSILPAYLRQTIHIVEETTKNFNNYQLNLAIGYGGREEILDAIKRITRDAMDGKLNIDELDEEKFRMYLYDGRIPDPDLILRTSGEERISNFLLWQSAYSELYFSDVYWPEFSKLDFLRAIYSYQRRQRRFGR	soluble
MVATLIIIRGNSASGKSTIAKQLQAELGENTLLLSQDYLRREMLGTKDGENTTTIPLLINLLNYGYHNCSYIILEGILRSDWYTPVWKHILKHNPNNTYAYYYDLSFQETVKRHSTR	not soluble
MGSDKIHHHHHHMKLLHIERHTTCLNYVSDYNICFIHQRLFSGGDFKIDNHHHSCILFLLKGEILTSCSEFHDQHIVEGHMVLFPQNDPNQSKSMTETEFILLFFDNQVNLHNKMSIELSAIHLESEKSCFYSLSICPPLRHVLDSICFYLKQKVQCSHMHELKQKEIFMVFGTFYNRTDMAHFLMPITGRDPNFKSFVLENYLQIRNIKQFAQLYHCSERSFNRKFKSCFHDTPYNWILNQKTRHIKGQLANRNIPISEIARTFHFASPSHFTTYCKKRLGITPSEFREKIAK	not soluble
MKLPAPPVLLFLCGMFSLPMALADSGIQLDTPKGGWRTRAMDGEQYIQEVNYPASSVNTPQGQADTARIRGQIKGAPKANKEPGKLIVNGVSMPLKFDEQGSFDRPYAFPNGSNSVEVRSPDGQQRQRVQFLNTGGGVTPPKLRVLLSWDSDNTDLDLHLVTPDGAHIWYGDRVAPNGATLDVDVTTGYGPEIFSMPAPLKGQYLVYVNYYGGGYRSDDDEDGGQENAVQPLTTAQVTVITEEGTPDEKSETFVVPMRAPGELTLVRSFSYPLEHHHHHH	not soluble
QLTPTFYDNSCPNVSNIVRDTIVNELRSDPRIAASILRLHFHDCFVNGCDASILLDNTTSFRTEKDAFGNANSARGFPVIDRMKAAVESACPRTVSCADLLTIAAQQSVTLAGGPSWRVPLGRRDSLQAFLDLANANLPAPFFTLPQLKDSFRNVGLNRSSDLVALSGGHTFGKNQCRFIMDRLYNFSNTGLPDPTLNTTYLQTLRGLCPLNGNLSALVDFDLRTPTIFDNKYYVNLEEQKGLIQSDQELFSSPNATDTIPLVRSFANSTQTFFNAFVEAMDRMGNITPLTGTQGQIRLNCRVVNSNSLLHDMVEVVDFVSSM	soluble
MGSDKIHHHHHHMTRNANKNNKECEKCWIFDLNQFKMITNSILEENTLVLEINQNYEVSVLMDYDVFLENGILTFKDFVNDNSKSAQVLTGSLKTGILNKMSQSISEGLLNKTTNRRTYYITEPTPLIGHTAFGLIDRGTNVIQVRGLSGCNINCPFCSVDEGIHSKSRKNDYYVDKDYLVSEYEKIADFKGYKKLEAHLDGQGEPSLYYPLPDLVQNLNEINSKNNGIVSIQTNGVHLTEKLIDDLEVAGLHRINLSINAMDEKFSKGLSGSKNYDIEKIMKIAEYIKNSKIHLLIAPLLLPNYNDEEFKKVLDFAVELEQKNPQNTINPITNKKNPIVGPQLCLTYQFGRKIPKMRVWDFPKFYNLLDVYHKEYLKDGINVDLEVPLHGFFGSHGRKRLPCPFKLNETISVTVLMDGRVNGEVIGASKNRVIQIIDCKTDINKLIGKRVKVKVLRVKDNVIVGSMVK	not soluble
MLLDKLSRPLKVLRISLTDRCNLRCNFCMPPGKEYNFLPKRQLLTPEEIEEYVKIFAKLGVEKVRLTGGEPLLREDLEEIIQRISKVEGIKDIALTTNGVFLKERLKALKEAGLKRITVSVHSLNPEKNQKLVNRSVNLGEVFEVIIRAKELGFKVKVNSVIIKGFNDDEILDLARFFKNLGVTLRFIEYMDVGTVNDWDFSKVVSADEILNLMKKEFTFYPLPKRPEDTSMDFIYEDGNKFGIIASVTKPFCRGCNRIRLSADGKLYTCLFSDKGHDLRNAVDKENFIKEVWKDRKDRYSELRRQMKRERKVEMFKVGGMGHHHHHHSH	soluble
MAHHHHHHMSGGDIWVRRAPIGHPREMTVSTSVNNGPGPQGRHLFAELPINAGGGEVVLGECGTSGPSRSCNAMFSFKPPRHEPLWQPTRLTSPYCVLSANGVQDDFYTSCLSWGKGNIALALRDEVLLFQPSRPLVRLAVLNVQERPRSIISRVTSVAVSRFSDSSCFMGELDGSVGVYASRGDGRLSQTSVFSKPPPPLENTPLAGEAAMTATASVRCLATTDVHPWLVAAGTAAQGLFIFDSRCEKPSAQMVECDTFIALDSKRARKPLSPEDCLSLLSSAEGICGVSWNASGSLVATGGSGGVVNIWSLSQTRAPVQQIKLPNAHTTVKAIAFNPTLPYELAVGGGTNDGMLRLYDVSSSVSYLAWCVSTGCQVTQALYSPDGAFIISAQGLRHDKFTADGRAHSTALRMPNSNGAGVDVHRDSMDALERLTEEFERGMTRNGRTQEELQEPAPSHSGTAMNWAGDTPRTDDSPAFSLVMWRRGTQHRHSVPLGFSNTKPRDRPRSQYIQETERTPLPLFSMYMMTGHRSRPLHLASPFSSTADRGSVASFAGGVDNTIRFWKCFCPRSEAVNWEHRTRASMRAAVTEEDVEGMMAMPLR	not soluble
MEKGWKRADLHVHTTCSFDVLPAKDLNPLSLYEKSLEIGMDFVTFTDHDTVEAYEILGWDREKLTPGAEMTLYDPEFAGHTLHINVFELDREYFSELREIAEIEHDLKSFTGYLKRHRLPFVYNHPFWFEFHRQPNPSAVPKLAKLFPVLEYNMHELKQKNELTIALAERFGKSIVATTDTHTGKMGQVYTLAKGDSFREYFRNIEKGRNYIVTGDLTRELLIEEMNTWIDLIFEKSQKNRDIKNYLTGIKSLDALVKISRSTLLNYSPRLNRTAMNLFYMISNTGLPASFYIHSEKSFAREIEKDIEINNRK	not soluble
